Reference: the supplement of paper PMC10567573

B1: ZNF263 (parent)
chain: LLRHQRIHTGERPYKCPECGKSFS
B2: CDS2 (parent)
chain: LIVVTQSHLVIHNLFEGMIWFIVP

Variants of: B1
Assay: protein stability index of a GFP-peptide fusion (GPS, HEK-293T) (PSI 1-6); higher = more stable
Conditions: c terminus: a fixed tail appended
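Further: lentivirally expressed fusions sorted by FACS into six bins by GFP to DsRed ratio, PSI derived from sequencing read proportions per bin multiplied by bin number.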

Variant | protein stability index
LLRHQRIHTGERPYKCPECGKSFH [S24H] | 2.12
LLKHQRIHTGERPYKCPECGKSFS [R3K] | 2.48
LLNHQRIHTGERPYKCPECGKSFS [R3N] | 2.28
LLRHQRIHTGERPYKCPECGKLFS [S22L] | 1.92
LLRHQRIHTGERPYKCPECGKAFS [S22A] | 2.41
LLRHQRIHTGERPYKCPECGKSIS [F23I] | 2.51
LLRHQRIHTGERPYKCPECGKSWS [F23W] | 1.84
LLRHQRIHTGERPYKCPECGKSPS [F23P] | 3.39
LLRHQRIHTGERPYKCPECGKSTS [F23T] | 2.59
LLRHQRIHTGERPYKCPECGKSSS [F23S] | 2.25
LLRHQRIHTGERPYKCPECGKSRS [F23R] | 1.93
LLRHQRIHTGERPYKEPECGKSFS [C16E] | 3.33
LLRHQRIHTGERPYKCPECGRSFS [K21R] | 2.01
LLRHQRIHTGERPYKCPECGPSFS [K21P] | 2.61
LLRHQRIHTGERPYKCPECGFSFS [K21F] | 1.82
LLRHQRIHTSERPYKCPECGKSFS [G10S] | 2.64
LLRHQRIHTVERPYKCPECGKSFS [G10V] | 2.43
LLRHQRIHTFERPYKCPECGKSFS [G10F] | 2.07
LLRHQRIHTQERPYKCPECGKSFS [G10Q] | 2.86
LLRHQRIHTGERPLKCPECGKSFS [Y14L] | 2.48
LLRHQRIHTGERPKKCPECGKSFS [Y14K] | 1.59

Variant | protein stability index
LLRHQYIHTGERPYKCPECGKSFS [R6Y] | 1.91
LLRHQPIHTGERPYKCPECGKSFS [R6P] | 2.56
LLRHQRIHTGERPYTCPECGKSFS [K15T] | 1.97
LLRHQRIHTGERPYICPECGKSFS [K15I] | 2.46
LLRHQRIHTGERPYRCPECGKSFS [K15R] | 2
LLRHQRIHTGERPYGCPECGKSFS [K15G] | 2.62
LLRHQRIHTGERPYSCPECGKSFS [K15S] | 2.48
GLRHQRIHTGERPYKCPECGKSFS [L1G] | 2.73
CLRHQRIHTGERPYKCPECGKSFS [L1C] | 4.12
FLRHQRIHTGERPYKCPECGKSFS [L1F] | 3.5
MLRHQRIHTGERPYKCPECGKSFS [L1M] | 1.65
LLRHQRIMTGERPYKCPECGKSFS [H8M] | 2.24
LLRHQRIITGERPYKCPECGKSFS [H8I] | 1.8
LLRHQRIHTGERPYKCPECAKSFS [G20A] | 2.05
LLRHQRIHTGERPYKCPECFKSFS [G20F] | 2.99
LLRHQRIHTGERPYKCPECIKSFS [G20I] | 1.75
LLRHQRIHTGERPYKCGECGKSFS [P17G] | 2.88
LLRHQRIHTGERPYKCSECGKSFS [P17S] | 1.66
LLRHQRIHTGEIPYKCPECGKSFS [R12I] | 2.64
LLRHQRIHTGEVPYKCPECGKSFS [R12V] | 2.91
LLRHQRIHTGERPYKCPETGKSFS [C19T] | 3.42

Variant | protein stability index
LLRHQRIHTGERPYKCPEYGKSFS [C19Y] | 2.45
LLRHQRIHTGERPYKCPEGGKSFS [C19G] | 3.3
LLRHQRIHTGSRPYKCPECGKSFS [E11S] | 2.34
LLRHQRIHTGERNYKCPECGKSFS [P13N] | 2.69
LLRHQRIHTGERDYKCPECGKSFS [P13D] | 2.11
LLRHQRIHWGERPYKCPECGKSFS [T9W] | 1.49
LLRHQRIHVGERPYKCPECGKSFS [T9V] | 2.34
LLRHQRIHNGERPYKCPECGKSFS [T9N] | 2.07
LLRHQRIHDGERPYKCPECGKSFS [T9D] | 2.73
LLRHQRIHTGERPYKCPSCGKSFS [E18S] | 2.25
LLRHQRIHTGERPYKCPKCGKSFS [E18K] | 2.64
LLRKQRIHTGERPYKCPECGKSFS [H4K] | 2.2
LLRVQRIHTGERPYKCPECGKSFS [H4V] | 3.58
LLRHCRIHTGERPYKCPECGKSFS [Q5C] | 1.95
LLRHPRIHTGERPYKCPECGKSFS [Q5P] | 2.3
LLRHQRSHTGERPYKCPECGKSFS [I7S] | 1.91
LLRHQRKHTGERPYKCPECGKSFS [I7K] | 2.14
LVRHQRIHTGERPYKCPECGKSFS [L2V] | 4.05
LARHQRIHTGERPYKCPECGKSFS [L2A] | 1.96

Variants of: B2
Assay: as above
Conditions: c terminus: a fixed tail appended

Variant | protein stability index
LIVVTQSHLVIHNLFEGMIWFNVP [I22N] | 1.8
LIVVTQSHLVIHNLFEGMIWFRVP [I22R] | 2.85
LIVVTQSHLVIHNLFEGMIWFLVP [I22L] | 3.99
LIVVTQSHLVIHNLFEGMIWFAVP [I22A] | 2.07
LIVVTQSHLVIHNLFEGMIWFQVP [I22Q] | 1.69
LIVVTQSHLVIHNLFEGMIWFEVP [I22E] | 3.14
LIVVTQSHLVIHNLFEGMIWFWVP [I22W] | 3.42
LIVVTQSHLVIHNLFEGMIWFTVP [I22T] | 3.85
LIVVTQSHLVIHNLFEGMIWFYVP [I22Y] | 2.27
LIVVTQSHLVIHNLFEGMIWFPVP [I22P] | 2.56
LIVVTQSHLVIHNLFEGMIWFDVP [I22D] | 4.26
LIVVTQSHLVIHNLFEGMIWFSVP [I22S] | 3.28
LIVVTQSHLVIHNLFEGMIWFFVP [I22F] | 2.83
LIVVTQSHLVIHNLFEGMIWFMVP [I22M] | 3.27
LIVVTQSHLVIHNLFEGMIWFKVP [I22K] | 3.07
LIVVTQSHLVIHNLFEGDIWFIVP [M18D] | 3.2
LIVVTQSHLVIHNLFEGRIWFIVP [M18R] | 1.99

Variant | protein stability index
LIVVTQSHLVIHNLFEGFIWFIVP [M18F] | 3.12
LIVVTQSHLVIHNLFEGQIWFIVP [M18Q] | 2.68
LIVVTQSHLVIHNLFEGWIWFIVP [M18W] | 2.66
LIVVTQSHLVIHNLFEGYIWFIVP [M18Y] | 3.67
LIVVTQSHLVIHNLFEGIIWFIVP [M18I] | 3.09
LIVVTQSHLVIHNLFEGEIWFIVP [M18E] | 4.08
LIVVTQSHLVIHNLFEGSIWFIVP [M18S] | 2.98
LIVVTQSHLVIHNLFEGKIWFIVP [M18K] | 1.96
LIVVTQSHLVIHNLFEGAIWFIVP [M18A] | 4.48
LIVVTQSHLVIHNLFEGVIWFIVP [M18V] | 4.17
LIVVTQSHLVIHNLFEGPIWFIVP [M18P] | 2.89
LIVVTQSHLVIHNLFEGGIWFIVP [M18G] | 2.85
LIVVTQSHLVIHNLFEGCIWFIVP [M18C] | 4.05
LIVVTQSHLVIHNLFERMIWFIVP [G17R] | 3.21
LIVVTQSHLVIHNLFEPMIWFIVP [G17P] | 2.82
LIVVTQSHLVIHNLFEHMIWFIVP [G17H] | 2.8
